Reference: PMC4642984, “CRY Drives Cyclic CK2-Mediated BMAL1 Phosphorylation to Control the Mammalian Circadian Clock” (PLoS Biology, 2015)

Molecular target: T1, ELucC-BMAL1 (mouse, UniProt Q9WTL8-2 1-625)
T1 construct: full-length mouse BMAL1 cDNA ligated downstream of ELucC; also called ELucC-BMAL1-WT (full length); ELucC-mBMAL1; source: Cos7 cells, transfected, in living cells; not shown: ELucC (C-terminal fragment of Emerald luciferase), N-terminal, kept
Test: split reporter (BiFC, NanoBiT); Split Luc complementation in living Cos7 cells transfected with ELucN-CK2β and ELucC-BMAL1 (WT or mutant) together with pcDNA, Myc-HA-CRY1, Myc-CRY2 or FLAG-CRY1 (WT or Cd1-4); real-time bioluminescence, averaged peak values
Settings: partners not purified

T1 sequence (Q9WTL8 other isoform, or with tags, fused parts or gaps): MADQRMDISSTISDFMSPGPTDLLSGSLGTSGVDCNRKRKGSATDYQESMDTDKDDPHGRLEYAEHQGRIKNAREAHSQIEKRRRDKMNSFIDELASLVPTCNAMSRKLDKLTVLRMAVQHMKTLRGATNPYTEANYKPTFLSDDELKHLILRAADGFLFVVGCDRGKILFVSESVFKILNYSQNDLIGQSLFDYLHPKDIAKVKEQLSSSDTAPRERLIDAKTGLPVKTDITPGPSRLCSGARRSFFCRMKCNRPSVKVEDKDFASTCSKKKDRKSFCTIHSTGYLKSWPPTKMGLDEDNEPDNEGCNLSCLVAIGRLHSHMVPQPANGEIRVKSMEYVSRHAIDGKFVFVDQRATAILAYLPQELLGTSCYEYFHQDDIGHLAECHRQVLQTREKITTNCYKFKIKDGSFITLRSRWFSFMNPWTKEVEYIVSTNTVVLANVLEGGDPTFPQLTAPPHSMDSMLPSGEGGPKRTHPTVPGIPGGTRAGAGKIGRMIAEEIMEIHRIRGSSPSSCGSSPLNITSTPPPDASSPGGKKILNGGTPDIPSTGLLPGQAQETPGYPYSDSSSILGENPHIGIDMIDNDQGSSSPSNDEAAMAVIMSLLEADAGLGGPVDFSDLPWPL

fold increase of Split Luc bioluminescence in the presence of CRY proteins: ~4 fold | fold increase of Split Luc bioluminescence on over-expression of Myc-tagged CRY1 or CRY2: ~6 fold
B1: ELucN-CK2β (natural protein)
chain: not shown
notes: full-length human CK2β cDNA ligated downstream of ELucN; Vector backbone pcDNA4/V5-His (B) or pcDNA3.1; also called CMV-ELucN-CK2β; source: Cos7 or U-2OS cells, transfected, in living cells; not shown: ELucN (N-terminal fragment of Emerald luciferase), N-terminal, kept
